Key:
[1] = target: the molecule itself; assay: SEC-MALS; purified proteins and preformed complexes, Superdex-200 10/300, 2 mg/ml, 15 mM TrisHCl, 150 mM NaCl, pH 7.4
Lip-DVL2-PDZ = target: T1, Lip-DVL2-PDZ (human, UniProt O14641 285-373); assay: ITC; MicroCal iTC200, 15 mM Tris-HCl, 150 mM NaCl, pH 7.4; Lip-DVL2-PDZ or Lip-DVL2-PDZ-V334E (696 μM) injected into 17.2 μM RFP-NKD-EF; details: both partners purified
T1 construct: PDZ domain of human DVL2, residues 285-373; also called DVL2 PDZ domain; wt DVL2 PDZ domain; source: E. coli BL21DE3 pRare2, purified (NiNTA, SEC)
T1 sequence (looked up): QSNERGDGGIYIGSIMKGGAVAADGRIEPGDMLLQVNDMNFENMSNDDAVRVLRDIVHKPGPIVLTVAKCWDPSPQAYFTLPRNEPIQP

B1: RFP-NKD1-EF (domain or fragment, human, UniProt Q969G9 110-190, looked up)
chain: EPCPGSKKQLKFEELQCDVSMEEDSRQEWTFTLYDFDNNGKVTREDITSLLHTIYEVVDSSVNHSPTSSKMLRVKLTVAPD
notes: EF-hand of human NKD1, residues 110-190; Dimer by SEC-MALS (expected RFP-NKD1-EF dimer, 71.8 kDa); also called RFP-NKD-EF; NKD1 EF-hand; source: E. coli BL21DE3 pRare2, purified (NiNTA, SEC)
For B1, the “stoichiometry N” value [1] was 2 and the Kd (Lip-DVL2-PDZ) was 3.2 ± 0.2 µM.

Reference: PMC7581431, “Feedback control of Wnt signaling based on ultrastable histidine cluster co-aggregation between Naked/NKD and Axin” (eLife, 2020)
